The results in this text go back to patent US20160251438A1 (LUDWIG INSTITUTE FOR CANCER RESEARCH, published 2016).

B1: LHG-10.4-D (antibody, human IgG1, V domains shown)
VH: EVQLVQPGAELRNSGASVKVSCKASGYRFTSYYIDWVRQAPGQGLEWMGRIDPEDGGTKYAQKFQGRVTFTADTSTSTAYVELSSLRSEDTAVYYCARNEWETVVVGDLMYEYEYWGQGTQVTVSS
VL: DIQMTQSPSSLSASLGDRVTITCQASQSISSYLAWYQQKPGQAPKLLIYGTSRLKTGVPSRFSGSGSGTSFTLTISGLEAEDAGTYYCQQYYSAPVTFGQGTKVELK
B2: LHG-10.4 (antibody, human IgG1, V domains shown)
VH: EVQLVQPGAELRNSGASVKVSCKASGYRFTSYYIDWVRQAPGQGLEWMGRIDPEDGGTKYAQKFQGRVTFTADTSTSTAYVELSSLRSEDTAVYYCARNEWETVVVGDLMYEYEYWGQGTQVTVSS
VL: DIQMTQSPSSLSASLGDRVTITCQASQSISSYLAWYQQKPGQAPKLLIYGTSRLKTGVPSRFSGSGSGTSFTLTISGLEAEDAGTYYCQQYYSAPVTFGQGTKVELK
notes: VK-shuffled variant of LHG-10, human IgG1
B3: LHG-10.5 (antibody, human IgG1, V domains shown)
VH: EVQLVQPGAELRNSGASVKVSCKASGYRFTSYYIDWVRQAPGQGLEWMGRIDPEDGGTKYAQKFQGRVTFTADTSTSTAYVELSSLRSEDTAVYYCARNEWETVVVGDLMYEYEYWGQGTQVTVSS
VL: DIQMTQSPSSLSPSLGDRVTITCQASQTISSFLAWYHQKPGQPPKLLIYRASIPQTGVPSRFSGSGSGTSFTLTIGGLEAEDAGTYYCQQYVSAPPTFGQGTKVELK
notes: as for B2
B4: LHG-10.5-D (antibody, human IgG1, V domains shown)
VH: EVQLVQPGAELRNSGASVKVSCKASGYRFTSYYIDWVRQAPGQGLEWMGRIDPEDGGTKYAQKFQGRVTFTADTSTSTAYVELSSLRSEDTAVYYCARNEWETVVVGDLMYEYEYWGQGTQVTVSS
VL: DIQMTQSPSSLSPSLGDRVTITCQASQTISSFLAWYHQKPGQPPKLLIYRASIPQTGVPSRFSGSGSGTSFTLTIGGLEAEDAGTYYCQQYVSAPPTFGQGTKVELK
B5: LHG-10.3 (antibody, human IgG1, V domains shown)
VH: EVQLVQPGAELRNSGASVKVSCKASGYRFTSYYIDWVRQAPGQGLEWMGRIDPEDGGTKYAQKFQGRVTFTADTSTSTAYVELSSLRSEDTAVYYCARNEWETVVVGDLMYEYEYWGQGTQVTVSS
VL: DIQMTQSPSSLSASLGDRVTITCQASQSIVSYLAWYQQKPGQAPKLLIYGASRLQTGVPSRFSGSGSGTSFTLTISGLEAEDAGTYYCQQYASAPVTFGQGTGVELK
notes: as for B2
B6: LHG-10.6 (antibody, human IgG1, V domains shown)
VH: EVQLVQPGAELRNSGASVKVSCKASGYRFTSYYIDWVRQAPGQGLEWMGRIDPEDGGTKYAQKFQGRVTFTADTSTSTAYVELSSLRSEDTAVYYCARNEWETVVVGDLMYEYEYWGQGTQVTVSS
VL: DIQMTQSPSSLSASLGDRVTITCQASQSISSYLAWYQQKPGQAPNILIYGASRLKTGVPSRFSGSGSGTSFTLTISGLEAEDAGTYYCQQYASVPVTFGQGTKVELK
notes: as for B2
B7: LHG-10.6-D (antibody, human IgG1, V domains shown)
VH: EVQLVQPGAELRNSGASVKVSCKASGYRFTSYYIDWVRQAPGQGLEWMGRIDPEDGGTKYAQKFQGRVTFTADTSTSTAYVELSSLRSEDTAVYYCARNEWETVVVGDLMYEYEYWGQGTQVTVSS
VL: DIQMTQSPSSLSASLGDRVTITCQASQSISSYLAWYQQKPGQAPNILIYGASRLKTGVPSRFSGSGSGTSFTLTISGLEAEDAGTYYCQQYASVPVTFGQGTKVELK
notes: also called LHG-10.6N297Q
B8: LHG-10.3-D (antibody, human IgG1, V domains shown)
VH: EVQLVQPGAELRNSGASVKVSCKASGYRFTSYYIDWVRQAPGQGLEWMGRIDPEDGGTKYAQKFQGRVTFTADTSTSTAYVELSSLRSEDTAVYYCARNEWETVVVGDLMYEYEYWGQGTQVTVSS
VL: DIQMTQSPSSLSASLGDRVTITCQASQSIVSYLAWYQQKPGQAPKLLIYGASRLQTGVPSRFSGSGSGTSFTLTISGLEAEDAGTYYCQQYASAPVTFGQGTGVELK
B9: LHG-10-D (antibody, human IgG1, V domains shown)
VH: EVQLVQPGAELRNSGASVKVSCKASGYRFTSYYIDWVRQAPGQGLEWMGRIDPEDGGTKYAQKFQGRVTFTADTSTSTAYVELSSLRSEDTAVYYCARNEWETVVVGDLMYEYEYWGQGTQVTVSS
VL: DIQMTQSPTSLSASLGDRVTITCQASQSISSYLAWYQQKPGQAPKLLIYGASRLQTGVPSRFSGSGSGTSFTLTISGLEAEDAGTYYCQQYDSLPVTFGQGTKVELK
B10: MHGARP8 (antibody, V domains shown)
VH: QVQLKESGPGLVAPSQSLSITCTVSGFSLTGYGINWVRQPPGKGLEWLGMIWSDGSTDYNSVLTSRLRISKDNSNSQVFLKMNSLQVDDTARYYCARDRNYYDYDGAMDYWGQGTSVTVSS
VL: DIQVTQSSSYLSVSLGDRVTITCKASDHIKNWLAWYQQKPGIAPRLLVSGATSLEAGVPSRFSGSGSGKNFTLSITSLQTEDVATYYCQQYWSTPWTFGGGTTLEIR
notes: biotinylated for FACS; also called MHG-8

T2 sequence (P01137 30-390 limits assumed): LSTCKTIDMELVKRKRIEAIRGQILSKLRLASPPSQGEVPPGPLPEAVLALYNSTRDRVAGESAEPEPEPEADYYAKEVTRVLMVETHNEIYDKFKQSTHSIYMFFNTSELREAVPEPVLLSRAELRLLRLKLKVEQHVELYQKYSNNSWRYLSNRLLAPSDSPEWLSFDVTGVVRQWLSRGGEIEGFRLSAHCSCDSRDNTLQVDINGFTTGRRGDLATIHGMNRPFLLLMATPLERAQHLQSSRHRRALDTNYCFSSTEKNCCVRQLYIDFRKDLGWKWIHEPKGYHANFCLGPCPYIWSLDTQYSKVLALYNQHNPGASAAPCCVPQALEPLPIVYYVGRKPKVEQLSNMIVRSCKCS

The target in the first assay is T1, recombinant soluble human GARP-TGFβ1 complex (human, UniProt Q14392 20-628; P01137 30-390).
T1 construct: co-expressed in HEK293E, purified by the Strep-Tag; TGFβ consists of LAP and mature TGFβ; also called shGARP-TGFβ; rhGARP-TGFβ
T1 sequence (Q14392 other isoform, or with tags, fused parts or gaps limits assumed, chain 1 of 2): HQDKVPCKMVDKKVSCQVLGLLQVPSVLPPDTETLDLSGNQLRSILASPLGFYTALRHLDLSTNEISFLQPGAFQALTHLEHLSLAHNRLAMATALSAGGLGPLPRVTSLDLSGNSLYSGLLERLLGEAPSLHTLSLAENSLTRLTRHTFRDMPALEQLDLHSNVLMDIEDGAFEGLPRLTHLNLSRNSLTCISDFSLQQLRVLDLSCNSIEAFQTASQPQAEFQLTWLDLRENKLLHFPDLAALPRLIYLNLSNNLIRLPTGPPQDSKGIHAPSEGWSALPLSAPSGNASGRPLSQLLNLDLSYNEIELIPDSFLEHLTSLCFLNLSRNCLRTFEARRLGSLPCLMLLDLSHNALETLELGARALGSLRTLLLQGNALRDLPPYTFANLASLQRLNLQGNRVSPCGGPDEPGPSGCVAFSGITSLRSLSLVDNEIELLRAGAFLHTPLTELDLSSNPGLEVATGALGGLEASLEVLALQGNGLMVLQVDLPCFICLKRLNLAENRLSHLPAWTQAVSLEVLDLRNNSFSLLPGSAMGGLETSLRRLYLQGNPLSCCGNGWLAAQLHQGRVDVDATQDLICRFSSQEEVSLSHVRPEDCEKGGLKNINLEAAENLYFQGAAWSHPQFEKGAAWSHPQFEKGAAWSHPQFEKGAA
T1 sequence (P01137 30-390 limits assumed, chain 2 of 2): as the sequence (P01137 30-390 limits assumed) above
In words: SPR (Biacore), hGARP-TGFβ1 immobilised.
Consider B1, for which the Kd is 0.0327 nM, the “fold improvement of KD (reference LHG-10-D)” value stood at 5.7 fold, the “fold improvement of ka (reference LHG-10-D)” value was 0.4 fold and the “fold improvement of kd (reference LHG-10-D)” value was 2.2 fold. For the same molecule, the koff was found to be 1.21e-05 s⁻¹ and the kon was determined as 371000 M⁻¹ s⁻¹.

As for B2, the Kd amounted to 0.0291 nM, the “fold improvement of KD (reference LHG-10)” value stood at 4.5 fold, the “fold improvement of ka (reference LHG-10)” value worked out at 0.5 fold and the “fold improvement of kd (reference LHG-10)” value turned out to be 2.4 fold. Besides, the koff turned out to be 1.3e-05 s⁻¹ and the kon was found to be 448000 M⁻¹ s⁻¹.

As to B3, the Kd was 0.0331 nM, the “fold improvement of KD (reference LHG-10)” value was determined as 4 fold, the “fold improvement of ka (reference LHG-10)” value came to 0.6 fold and the “fold improvement of kd (reference LHG-10)” value was determined as 2.3 fold. Also, the dissociation rate constant (koff) was 1.37e-05 s⁻¹ and the kon turned out to be 415000 M⁻¹ s⁻¹.

In the case of B4, the Kd worked out at 0.028 nM, the “fold improvement of KD (reference LHG-10-D)” value was 6.6 fold, the “fold improvement of ka (reference LHG-10-D)” value came out at 0.4 fold and the “fold improvement of kd (reference LHG-10-D)” value is 2.4 fold. In addition, the koff was 1.07e-05 s⁻¹ and the kon was determined as 383000 M⁻¹ s⁻¹.

Consider B5, for which the Kd was found to be 0.0222 nM, the “fold improvement of KD (reference LHG-10)” value is 5.9 fold, the “fold improvement of ka (reference LHG-10)” value came to 0.8 fold and the “fold improvement of kd (reference LHG-10)” value was 4.9 fold. Besides, the koff was 6.38e-06 s⁻¹ and the kon came out at 287000 M⁻¹ s⁻¹.

Consider B6, for which the Kd was 0.0159 nM, the “fold improvement of KD (reference LHG-10)” value stood at 8.2 fold, the “fold improvement of ka (reference LHG-10)” value was 0.9 fold and the “fold improvement of kd (reference LHG-10)” value was found to be 7.1 fold. The koff is 4.4e-06 s⁻¹ and the kon is 276000 M⁻¹ s⁻¹.

Turning to B7, the Kd was 0.0216 nM, the “fold improvement of KD (reference LHG-10-D)” value stood at 8.6 fold, the “fold improvement of ka (reference LHG-10-D)” value worked out at 0.5 fold and the “fold improvement of kd (reference LHG-10-D)” value is 4.3 fold. Besides, the koff stood at 6.15e-06 s⁻¹ and the kon stood at 284000 M⁻¹ s⁻¹.

Regarding B8, the Kd was found to be 0.0224 nM, the “fold improvement of KD (reference LHG-10-D)” value was 8.3 fold, the “fold improvement of ka (reference LHG-10-D)” value turned out to be 0.6 fold and the “fold improvement of kd (reference LHG-10-D)” value came out at 5.1 fold. Further, the koff worked out at 5.18e-06 s⁻¹ and the kon worked out at 231000 M⁻¹ s⁻¹.

Take B9: the Kd was found to be 0.185 nM, the “fold improvement of KD (reference LHG-10-D)” value is 1 fold, the “fold improvement of ka (reference LHG-10-D)” value is 1 fold and the “fold improvement of kd (reference LHG-10-D)” value was found to be 1 fold. Also, the koff worked out at 2.62e-05 s⁻¹ and the kon came out at 142000 M⁻¹ s⁻¹.

A further assay has as its target T2, human TGF-β1 (latent) (human, UniProt P01137 30-390).
T2 construct: from transfected hTGFB1; also called hTGF-β1; hTGFB1
Put plainly: FACS, 293T + hTGFB1 only [cont.) B]. The text has this:
No latent TGF-β is detected on their surface with an anti-LAP antibody. Transfection of GARP or TGFB1 alone induces no or low surface LAP, respectively, whereas co-transfection of GARP and TGFB1 induces high surface LAP as a result of latent TGF-β1 binding and presentation by GARP (FIG. 14, part B, left histograms).
With B10, the binding result is on record as “no binding”.
